Measurements reported in US20180072786A1.
Ends that are not written are not given here.

Target: mixture of biotinylated D-enantiomeric Aβ1-42 oligomers and fibrils (UniProt P05067)
Assay: monoclonal phage ELISA, A450; signal on immobilized oligomers/fibrils (normalized by the 6E10 control) against signal on monomers set to 100%

mixture of biotinylated D-enantiomeric Aβ1-42 oligomers and fibrils, sequence (P05067 672-713 limits assumed, form in doubt): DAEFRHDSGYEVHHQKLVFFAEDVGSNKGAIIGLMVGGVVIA

B1: individual phage clone 6.227 (Mosd8) (peptide, not shown: large carriers)
peptide: HFWSWTSLSMTR
modifications: not fully specified
  Difference in signal strength between Aβ1-42 monomers (100%) and Aβ1-42 oligomers and fibrils: 68.6%

B2: individual phage clone 6.240 (Mosd17) (peptide, not shown: large carriers)
peptide: ERSQWGHRDPQS
modifications: not fully specified
  Difference in signal strength between Aβ1-42 monomers (100%) and Aβ1-42 oligomers and fibrils: 54.5%

B3: individual phage clone 6.216 (Mosd5) (peptide, not shown: large carriers)
peptide: HNWSWEWWYNPN
modifications: not fully specified
  Difference in signal strength between Aβ1-42 monomers (100%) and Aβ1-42 oligomers and fibrils: 62.7%

B4: individual phage clone 6.245 (Mosd11) (peptide, not shown: large carriers)
peptide: LSMNITTVHRWH
modifications: not fully specified
  Difference in signal strength between Aβ1-42 monomers (100%) and Aβ1-42 oligomers and fibrils: 57.7%

B5: individual phage clone 5.81 (Mosd4) (peptide, not shown: large carriers)
peptide: HNWFYWTTEPYD
modifications: not fully specified
  Difference in signal strength between Aβ1-42 monomers (100%) and Aβ1-42 oligomers and fibrils: 69.2%

B6: individual phage clone 6.197 (Mosd14) (peptide, not shown: large carriers)
peptide: EHWDFGQWWQQS
modifications: not fully specified
  Difference in signal strength between Aβ1-42 monomers (100%) and Aβ1-42 oligomers and fibrils: 56.5%

B7: individual phage clone 6.257 (Mosd18) (peptide, not shown: large carriers)
peptide: DRSKGDHRITQM
modifications: not fully specified
  Difference in signal strength between Aβ1-42 monomers (100%) and Aβ1-42 oligomers and fibrils: 49.2%

B8: individual phage clone 5.80 (Mosd2) (peptide, not shown: large carriers)
peptide: HTWTTYDYVWRL
modifications: not fully specified
  Difference in signal strength between Aβ1-42 monomers (100%) and Aβ1-42 oligomers and fibrils: 67.1%

B9: individual phage clone 5.57 (Mosd3) (peptide, not shown: large carriers)
peptide: GTMLKFSGMNLT
modifications: not fully specified
  Difference in signal strength between Aβ1-42 monomers (100%) and Aβ1-42 oligomers and fibrils: 60%

B10: individual phage clone 6.190 (Mosd19) (peptide, not shown: large carriers)
peptide: DLRFSSLWKLSH
modifications: not fully specified
  Difference in signal strength between Aβ1-42 monomers (100%) and Aβ1-42 oligomers and fibrils: 50.3%

B11: individual phage clone 6.135 (Mosd21) (peptide, not shown: large carriers)
peptide: FSWSMVMPWPTA
modifications: not fully specified
  Difference in signal strength between Aβ1-42 monomers (100%) and Aβ1-42 oligomers and fibrils: 46%

B12: individual phage clone 6.239 (Mosd9) (peptide, not shown: large carriers)
peptide: HLSWYWEKYLTS
modifications: not fully specified
  Difference in signal strength between Aβ1-42 monomers (100%) and Aβ1-42 oligomers and fibrils: 68%

B13: individual phage clone 5.60, which contains the peptide sequence of Mosd1 (peptide, not shown: large carriers)
peptide: YSYLTSYHMVWR
modifications: not fully specified
  Difference in signal strength between Aβ1-42 monomers (100%) and Aβ1-42 oligomers and fibrils: 72%

B14: individual phage clone 6.167 (Mosd20) (peptide, not shown: large carriers)
peptide: VHWDFRQWWQPS
modifications: not fully specified
  Difference in signal strength between Aβ1-42 monomers (100%) and Aβ1-42 oligomers and fibrils: 45.7%

B15: individual phage clone 6.113 (Mosd13) (peptide, not shown: large carriers)
peptide: YSFHFEMNMGNY
modifications: not fully specified
  Difference in signal strength between Aβ1-42 monomers (100%) and Aβ1-42 oligomers and fibrils: 57.2%

B16: individual phage clone 6.141 (Mosd12) (peptide, not shown: large carriers)
peptide: VHWDFRQWWQQS
modifications: not fully specified
  Difference in signal strength between Aβ1-42 monomers (100%) and Aβ1-42 oligomers and fibrils: 59%

B17: individual phage clone 6.249 (Mosd6) (peptide, not shown: large carriers)
peptide: STLHFYTAFLNK
modifications: not fully specified
  Difference in signal strength between Aβ1-42 monomers (100%) and Aβ1-42 oligomers and fibrils: 68%

B18: individual phage clone 6.247 (Mosd7) (peptide, not shown: large carriers)
peptide: FSHSHHTWFTWN
modifications: not fully specified
  Difference in signal strength between Aβ1-42 monomers (100%) and Aβ1-42 oligomers and fibrils: 58%

B19: individual phage clone 6.139 (Mosd16) (peptide, not shown: large carriers)
peptide: DWSSRVYRDPQT
modifications: not fully specified
  Difference in signal strength between Aβ1-42 monomers (100%) and Aβ1-42 oligomers and fibrils: 52.4%

B20: individual phage clone 6.242 (Mosd10) (peptide, not shown: large carriers)
peptide: HTWTHWFSWNVP
modifications: not fully specified
  Difference in signal strength between Aβ1-42 monomers (100%) and Aβ1-42 oligomers and fibrils: 71.9%

B21: individual phage clone 6.255 (Mosd15) (peptide, not shown: large carriers)
peptide: GQWDFRQWWQPC
modifications: not fully specified
  Difference in signal strength between Aβ1-42 monomers (100%) and Aβ1-42 oligomers and fibrils: 60%
